Paper PMC6113224, “Structural basis of cell wall peptidoglycan amidation by the GatD/MurT complex of Staphylococcus aureus” (Scientific Reports, 2018)

Target: T1, GatD (glutamine amidotransferase-like protein GatD of Staphylococcus aureus) (Staphylococcus aureus, UniProt A0A0H2WZ38 1-243)
T1 construct: GatD, glutamine amidotransferase-like subunit of the GatD/MurT Lipid II amidation complex, Staphylococcus aureus; full length; source: E. coli BL21, co-expressed with MurT from pET21b (gatD/murT operon), purified (Ni-NTA, two rounds of SEC)
T1 sequence (looked up): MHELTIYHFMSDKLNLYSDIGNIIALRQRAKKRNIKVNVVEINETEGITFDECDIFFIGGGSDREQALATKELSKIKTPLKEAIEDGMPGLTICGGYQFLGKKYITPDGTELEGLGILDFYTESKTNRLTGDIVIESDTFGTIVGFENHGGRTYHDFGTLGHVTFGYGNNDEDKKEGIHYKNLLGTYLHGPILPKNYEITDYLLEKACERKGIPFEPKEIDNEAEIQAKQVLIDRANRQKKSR
Experiment: SAXS; two-fold dilution series 0.5 to 8 mg/mL of GatD/MurT in SEC II buffer, extrapolated to zero concentration; beamline P12, DESY
Details: both partners purified

B1: MurT (Mur ligase homolog MurT of Staphylococcus aureus) (enzyme, UniProt A0A0H2WZQ7 1-437, looked up)
chain: MRQWTAIHLAKLARKASRAVGKRGTDLPGQIARKVDTDILRKLAEQVDDIVFISGTNGKTTTSNLIGHTLKANNIQIIHNNEGANMAAGITSAFIMQSTPKTKIAVIEIDEGSIPRVLKEVTPSMMVFTNFFRDQMDRFGEIDIMVNNIAETISNKGIKLLLNADDPFVSRLKIASDTIVYYGMKAHAHEFEQSTMNESRYCPNCGRLLQYDYIHYNQIGHYHCQCGFKREQAKYEISSFDVAPFLYLNINDEKYDMKIAGDFNAYNALAAYTVLRELGLNEQTIKNGFETYTSDNGRMQYFKKERKEAMINLAKNPAGMNASLSVGEQLEGEKVYVISLNDNAADGRDTSWIYDADFEKLSKQQIEAIIVTGTRAEELQLRLKLAEVEVPIIVERDIYKATAKTMDYKGFTVAIPNYTSLAPMLEQLNRSFEGGQS
notes: MurT, Mur ligase homolog subunit of the GatD/MurT Lipid II amidation complex, Staphylococcus aureus; full length, untagged; MurT residues 1-35, 195-196 and 434-437 are not seen in the crystal structure
B1 was tested, and the “stoichiometry N” value was 1.
